{"source": "paper PMC5460274", "about": "“Human dimethylarginine dimethylaminohydrolase 1 inhibition by proton pump inhibitors and the cardiovascular risk marker asymmetric dimethylarginine: in vitro and in vivo significance” (Scientific Reports, 2017)", "proteins": {"B1": {"name": "dimethylarginine dimethylaminohydrolase 1 (DDAH1) (Homo sapiens) (protein)", "chain": "AGLGHPAAFGRATHAVVRALPESLGQHALRSAKGEEVDVARAERQHQLYVGVLGSKLGLQVVELPADESLPDCVFVEDVAVVCEETALITRPGAPSRRKEVDMMKEALEKLQLNIVEMKDENATLDGGDVLFTGREFFVGLSKRTNQRGAEILADTFKDYAVSTVPVADGLHLKSFCSMAGPNLIAIGSSESAQKALKIMQQMSDHRYDKLTVPDDIAANCIYLNIPNKGHVLLHRTPEEYPESAKVYEKLKDHMLIPVSMSELEKVDGLLTCCSVLINKKVDS"}}, "substrate": "CN(C)C(=N)NCCC[C@H](N)C(=O)O", "test": "cells, lysate or membranes", "data": [{"protein": "B1", "values": [{"measurement": "Km", "value": "45 ± 2", "unit": "µM"}]}]}
